According to article PMC6921966 (Frontiers in Immunology, 2019):

Columns and labels:
[1] = target: M2 of A/Udorn/307/1972 (H3N2) on infected cells (influenza A virus A/Udorn/307/1972 …, UniProt P0DOF5); experiment: flow cytometry on cells; conditions: one partner purified
[2] = target: M2 of A/Puerto Rico/8/1934 (H1N1) on infected cells (Influenza A virus A/Puerto Rico/8/1934 …, UniProt P06821); experiment: flow cytometry on cells; conditions: one partner purified
[3] = target: M2 of A/Swine/Ontario/42729A/2001 (H3N3) on infected cells (Influenza A virus …, UniProt Q64HP7, strain); experiment: flow cytometry on cells; conditions: one partner purified
human H3N2 M2e peptide [4] = target: T1, human H3N2 M2e peptide (Influenza A virus, human H3N2 consensus); experiment: ITC; […] (300 μM) […] (30 μM) in PBS; […]; conditions: both partners purified
T1 chain: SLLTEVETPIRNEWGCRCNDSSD

[5] = target: T2, mouse FcγRIV on transfected HEK293T cells (Mus musculus, UniProt A0A0B4J1G0); experiment: flow cytometry on cells; conditions: one partner purified
T2 construct: also called FcγRIV transfected cells

human H3N2 M2e peptide [6] = target: T1, human H3N2 M2e peptide; experiment: ELISA; conditions: both partners purified

T2 sequence (A0A0B4J1G0 21-249): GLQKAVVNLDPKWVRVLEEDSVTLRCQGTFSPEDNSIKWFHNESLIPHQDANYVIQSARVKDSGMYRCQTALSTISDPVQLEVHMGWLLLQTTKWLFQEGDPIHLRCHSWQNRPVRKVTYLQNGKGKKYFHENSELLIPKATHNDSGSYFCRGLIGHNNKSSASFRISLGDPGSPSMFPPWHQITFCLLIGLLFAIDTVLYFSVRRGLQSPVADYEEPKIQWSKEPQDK
Chain of M2 of A/Puerto Rico/8/1934 (H1N1) on infected cells (P06821 whole entry): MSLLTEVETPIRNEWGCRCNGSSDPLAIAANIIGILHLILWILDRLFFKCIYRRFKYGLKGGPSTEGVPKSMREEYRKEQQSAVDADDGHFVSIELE
Chain of M2 of A/Udorn/307/1972 (H3N2) on infected cells (P0DOF5 whole entry): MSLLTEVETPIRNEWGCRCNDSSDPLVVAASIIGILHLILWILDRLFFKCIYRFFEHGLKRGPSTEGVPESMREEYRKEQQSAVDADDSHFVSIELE

B1: M2e-VHH-23m (VHH)
VHH: QVQLQESGGGLVQTGGSLRLSCAFSGFTSDDYVIGWFRQAPGKGRQGVSCIRLSGGGTIYADSAKGRFTVSADNAKKTVYLQMTRLKPEDTAVYYCGAERYNVEGCGYDVAYWGKGTQVTVSS
notes: also called M2e-VHH-m23; M1e- VHH-23m; not shown: His6, C-terminal, kept
[1]
  binding result: binds
[2]
  Kd: 13.6 nM
[3]
  binding result: no binding (tested: 20 μg/ml)
Human H3N2 M2e peptide [4]
  Kd: 730 nM
  stoichiometry N: 1

B2: FcγRIV-VHH-7m (VHH)
VHH: QVQLQESGGGLVQAGGSLRLSCAASGFTVDDYSIGWFRQAPGKEREGVSCISIRDGSTGYTDPVKGRFTISSDNAKNMVYLQMNMLKPEDTAVYYCAGDIYCSNDDVGVGPYDYWGQGTQVTVSS
notes: also called FcgRIV-VHH-7m; FcγRIV-specific VHH
[5]
  binding result: binds

B3: M2e-VHH-66m (VHH)
VHH: QVQLQESGGGLVQTGGSLRLSCAFSGFISDDYVIGWFRQAPGKGRQGVSCIRLSGGGTIYADSAKGRFTISADNAKKTVYLQMTSLKPEDTAVYYCGAERHNVEGCGYDVAYWGKGTQVTVSS
notes: not shown: His6, C-terminal, kept
Human H3N2 M2e peptide [6]
  binding result: binds

B4: M2e-VHH-10m (VHH)
VHH: QVQLQESGGGLVQAGESLSLSCAASGLAFDDYVIGWYRQAPGKGREGLSCMRLSNGAIMYGPSVKGRFTMSSDNAKSTFFLQMTRLIPEDTAVYYCGAEKHDVNGCGFDVAYWGQGTQVTVSS
notes: as for B3
Human H3N2 M2e peptide [6]
  binding result: binds
